T1: human IL-2 receptor (IL-2Rα/IL-2Rβ/γc) (human, UniProt P01589 22-272; P14784 27-551; P31785 23-369)
T1 sequence 1: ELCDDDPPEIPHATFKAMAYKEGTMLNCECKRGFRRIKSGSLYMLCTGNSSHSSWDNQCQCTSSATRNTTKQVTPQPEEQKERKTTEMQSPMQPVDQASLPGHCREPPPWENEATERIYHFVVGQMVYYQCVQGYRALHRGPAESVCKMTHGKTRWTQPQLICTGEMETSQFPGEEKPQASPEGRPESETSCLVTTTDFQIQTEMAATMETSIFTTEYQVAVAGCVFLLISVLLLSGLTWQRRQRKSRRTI
T1 sequence 2: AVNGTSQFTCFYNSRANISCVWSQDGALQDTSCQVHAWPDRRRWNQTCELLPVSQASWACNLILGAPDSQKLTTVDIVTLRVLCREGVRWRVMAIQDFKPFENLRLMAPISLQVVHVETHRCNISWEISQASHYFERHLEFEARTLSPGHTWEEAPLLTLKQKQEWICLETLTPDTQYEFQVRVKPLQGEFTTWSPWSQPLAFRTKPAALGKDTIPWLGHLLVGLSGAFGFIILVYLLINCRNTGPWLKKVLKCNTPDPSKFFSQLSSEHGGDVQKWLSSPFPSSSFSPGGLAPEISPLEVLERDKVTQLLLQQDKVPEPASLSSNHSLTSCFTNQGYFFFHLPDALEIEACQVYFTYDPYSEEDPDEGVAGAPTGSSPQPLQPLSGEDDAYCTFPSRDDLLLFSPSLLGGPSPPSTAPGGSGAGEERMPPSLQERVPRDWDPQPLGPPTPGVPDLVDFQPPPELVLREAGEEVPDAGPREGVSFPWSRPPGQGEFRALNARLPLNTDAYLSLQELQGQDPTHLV
T1 sequence 3: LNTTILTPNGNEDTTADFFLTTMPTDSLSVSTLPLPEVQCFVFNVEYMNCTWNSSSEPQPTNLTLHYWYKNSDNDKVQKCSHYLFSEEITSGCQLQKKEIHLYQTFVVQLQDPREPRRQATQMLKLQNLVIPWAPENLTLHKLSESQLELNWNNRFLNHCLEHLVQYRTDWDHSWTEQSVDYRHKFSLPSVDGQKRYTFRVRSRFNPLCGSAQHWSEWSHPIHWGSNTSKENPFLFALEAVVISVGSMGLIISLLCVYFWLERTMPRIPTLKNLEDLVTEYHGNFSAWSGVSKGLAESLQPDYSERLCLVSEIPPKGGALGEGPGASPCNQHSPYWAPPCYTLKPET


Molecular target: T1, human IL-2 receptor (IL-2Rα/IL-2Rβ/γc)
Assay: cell-based or functional assay

| EC50 (nM) pSTAT5, NK, human PBMCs [nM] | EC50 (nM) pSTAT5, Treg, human PBMCs [pM] | Fold Max signal (% pSTAT5+) Treg/NK [fold] | Max signal (% pSTAT5+), NK [% pSTAT5+] | Max signal (% pSTAT5+), Treg [% pSTAT5+] | fold EC50 NK/Treg [fold] | Binder |
| --- | --- | --- | --- | --- | --- | --- |
| 0.00648 | < 0.1 | 4 | 4.42 | 17.8 | > 64.8 | DC00080 (other) chain 1: QVQLVESGGGLVQAGGSLRLSCAASGGTFRTRNMGWFRRAPGKEREFVAAVSWNVDNKLYADSVKGRFTISRDNGRNMVYLQMNSLKPEDTAVYYCAADNIPLSSDMRPTATEYDYWGQGTQVTVSSDKTHTCPPCPAPEAAGGPSVFLFPPKPKDTLMISRTPEVTCVVVDVSHEDPEVKFNWYVDGVEVHNAKTKPREEQYNSTYRVVSVLTVLHQDWLNGKEYKCKVSNKALGAPIEKTISKAKGQPREPQVYTLPPSRDELTKNQVSLTCLVKGFYPSDIAVEWESNGQPENNYKTTPPVLDSDGSFLLYSKLTVDKSRWQQGNVFSCSVMHEALHNHYTQKSLSLSPGK chain 2: EVQLVESGGGLVQTGGSLRLSCAASGGTFSRDAMAWFRQVPGKEREFVALISWSGATTNYADSVKGRFAISRDNGKNTVYLQMNRLKPADTAIYYCAADRRPMGSRSYFEPTEYDDWGQGTQVTVSSGGGGSGGGGSGGGGSQVQLVESGGGLVQPGGSLRLSCATSGFTFRNNFMSWVRQAPGKGLEWVSTISYGGESTTYAESVKGRFTISRDNAKNTLYLQMNNLKPEDTAVYYCAKATSYDSIRSGSRGQGTQVTVSSGGGGSGGGGSGGGGSQVQLVESGGGLVQAGGSLTLSCAAPGRTFGTDVVGWFRQAPGKEREFVASISRSGDGIYYDDSVKGRFTISRNNAWNTVNLQMNSLKVEDTAVYYCAAGDGWSTYDYWGQGTQVTVSSGGGGSGGGGSGGGGSDKTHTCPPCPAPEAAGGPSVFLFPPKPKDTLMISRTPEVTCVVVDVSHEDPEVKFNWYVDGVEVHNAKTKPREEQYNSTYRVVSVLTVLHQDWLNGKEYKCKVSNKALGAPIEKTISKAKGQPREPQVYTLPPSRDELTKNQVSLTCLVKGFYPSDIAVEWESNGQPENNYKTTPPVLDSDGSFFLYSRLTVDKSRWQQGNVFSCSVMHEALHNHYTQKSLSLSPGK |
| 0.496 | < 0.1 | 5 | 13 | 64.1 | > 4960 | DC00083 (other) chain 1: QVQLVESGGGLVQAGGSLRLSCAASGGTFRTRNMGWFRRAPGKEREFVAAVSWNVDNKLYADSVKGRFTISRDNGRNMVYLQMNSLKPEDTAVYYCAADNIPLSSDMRPTATEYDYWGQGTQVTVSSDKTHTCPPCPAPEAAGGPSVFLFPPKPKDTLMISRTPEVTCVVVDVSHEDPEVKFNWYVDGVEVHNAKTKPREEQYNSTYRVVSVLTVLHQDWLNGKEYKCKVSNKALGAPIEKTISKAKGQPREPQVYTLPPSRDELTKNQVSLTCLVKGFYPSDIAVEWESNGQPENNYKTTPPVLDSDGSFLLYSKLTVDKSRWQQGNVFSCSVMHEALHNHYTQKSLSLSPGK chain 2: QVQLVESGGGLVQAGGSLTLSCAAPGRTFGTDVVGWFRQAPGKEREFVASISRSGDGIYYDDSVKGRFTISRNNAWNTVNLQMNSLKVEDTAVYYCAAGDGWSTYDYWGQGTQVTVSSGGGGSGGGGSGGGGSEVQLVESGGGLVQTGGSLRLSCAASGGTFSRDAMAWFRQVPGKEREFVALISWSGATTNYADSVKGRFAISRDNGKNTVYLQMNRLKPADTAIYYCAADRRPMGSRSYFEPTEYDDWGQGTQVTVSSGGGGSGGGGSGGGGSQVQLVESGGGLVQPGGSLRLSCATSGFTFRNNFMSWVRQAPGKGLEWVSTISYGGESTTYAESVKGRFTISRDNAKNTLYLQMNNLKPEDTAVYYCAKATSYDSIRSGSRGQGTQVTVSSDKTHTCPPCPAPEAAGGPSVFLFPPKPKDTLMISRTPEVTCVVVDVSHEDPEVKFNWYVDGVEVHNAKTKPREEQYNSTYRVVSVLTVLHQDWLNGKEYKCKVSNKALGAPIEKTISKAKGQPREPQVYTLPPSRDELTKNQVSLTCLVKGFYPSDIAVEWESNGQPENNYKTTPPVLDSDGSFFLYSRLTVDKSRWQQGNVFSCSVMHEALHNHYTQKSLSLSPGK |
| 0.194 | < 0.1 | 5 | 13.5 | 60.9 | > 1940 | DC00081 (other) chain 1: QVQLVESGGGLVQAGGSLRLSCAASGGTFRTRNMGWFRRAPGKEREFVAAVSWNVDNKLYADSVKGRFTISRDNGRNMVYLQMNSLKPEDTAVYYCAADNIPLSSDMRPTATEYDYWGQGTQVTVSSDKTHTCPPCPAPEAAGGPSVFLFPPKPKDTLMISRTPEVTCVVVDVSHEDPEVKFNWYVDGVEVHNAKTKPREEQYNSTYRVVSVLTVLHQDWLNGKEYKCKVSNKALGAPIEKTISKAKGQPREPQVYTLPPSRDELTKNQVSLTCLVKGFYPSDIAVEWESNGQPENNYKTTPPVLDSDGSFLLYSKLTVDKSRWQQGNVFSCSVMHEALHNHYTQKSLSLSPGK chain 2: QVQLVESGGGLVQPGGSLRLSCATSGFTFRNNFMSWVRQAPGKGLEWVSTISYGGESTTYAESVKGRFTISRDNAKNTLYLQMNNLKPEDTAVYYCAKATSYDSIRSGSRGQGTQVTVSSGGGGSGGGGSGGGGSQVQLVESGGGLVQAGGSLTLSCAAPGRTFGTDVVGWFRQAPGKEREFVASISRSGDGIYYDDSVKGRFTISRNNAWNTVNLQMNSLKVEDTAVYYCAAGDGWSTYDYWGQGTQVTVSSGGGGSGGGGSGGGGSEVQLVESGGGLVQTGGSLRLSCAASGGTFSRDAMAWFRQVPGKEREFVALISWSGATTNYADSVKGRFAISRDNGKNTVYLQMNRLKPADTAIYYCAADRRPMGSRSYFEPTEYDDWGQGTQVTVSSGGGGSGGGGSGGGGSDKTHTCPPCPAPEAAGGPSVFLFPPKPKDTLMISRTPEVTCVVVDVSHEDPEVKFNWYVDGVEVHNAKTKPREEQYNSTYRVVSVLTVLHQDWLNGKEYKCKVSNKALGAPIEKTISKAKGQPREPQVYTLPPSRDELTKNQVSLTCLVKGFYPSDIAVEWESNGQPENNYKTTPPVLDSDGSFFLYSRLTVDKSRWQQGNVFSCSVMHEALHNHYTQKSLSLSPGK |
| 0.0227 | 0.848 | 2 | 2.11 | 4.57 | 27 | DC00082 (other) chain 1: QVQLVESGGGLVQAGGSLRLSCAASGGTFRTRNMGWFRRAPGKEREFVAAVSWNVDNKLYADSVKGRFTISRDNGRNMVYLQMNSLKPEDTAVYYCAADNIPLSSDMRPTATEYDYWGQGTQVTVSSDKTHTCPPCPAPEAAGGPSVFLFPPKPKDTLMISRTPEVTCVVVDVSHEDPEVKFNWYVDGVEVHNAKTKPREEQYNSTYRVVSVLTVLHQDWLNGKEYKCKVSNKALGAPIEKTISKAKGQPREPQVYTLPPSRDELTKNQVSLTCLVKGFYPSDIAVEWESNGQPENNYKTTPPVLDSDGSFLLYSKLTVDKSRWQQGNVFSCSVMHEALHNHYTQKSLSLSPGK chain 2: QVQLVESGGGLVQPGGSLRLSCATSGFTFRNNFMSWVRQAPGKGLEWVSTISYGGESTTYAESVKGRFTISRDNAKNTLYLQMNNLKPEDTAVYYCAKATSYDSIRSGSRGQGTQVTVSSGGGGSGGGGSGGGGSEVQLVESGGGLVQTGGSLRLSCAASGGTFSRDAMAWFRQVPGKEREFVALISWSGATTNYADSVKGRFAISRDNGKNTVYLQMNRLKPADTAIYYCAADRRPMGSRSYFEPTEYDDWGQGTQVTVSSGGGGSGGGGSGGGGSQVQLVESGGGLVQAGGSLTLSCAAPGRTFGTDVVGWFRQAPGKEREFVASISRSGDGIYYDDSVKGRFTISRNNAWNTVNLQMNSLKVEDTAVYYCAAGDGWSTYDYWGQGTQVTVSSGGGGSGGGGSGGGGSDKTHTCPPCPAPEAAGGPSVFLFPPKPKDTLMISRTPEVTCVVVDVSHEDPEVKFNWYVDGVEVHNAKTKPREEQYNSTYRVVSVLTVLHQDWLNGKEYKCKVSNKALGAPIEKTISKAKGQPREPQVYTLPPSRDELTKNQVSLTCLVKGFYPSDIAVEWESNGQPENNYKTTPPVLDSDGSFFLYSRLTVDKSRWQQGNVFSCSVMHEALHNHYTQKSLSLSPGK |

Reference: patent US20240409645A1 (DUALYX, published 2024)
